Where two headings read alike, the source gives them in different places.
How the values were obtained:
Experiment in all cases: fluorescence anisotropy
TFB2M-WT [1] = target: T1, TFB2M-WT (human, UniProt Q9H5Q4 20-396)
T1 sequence: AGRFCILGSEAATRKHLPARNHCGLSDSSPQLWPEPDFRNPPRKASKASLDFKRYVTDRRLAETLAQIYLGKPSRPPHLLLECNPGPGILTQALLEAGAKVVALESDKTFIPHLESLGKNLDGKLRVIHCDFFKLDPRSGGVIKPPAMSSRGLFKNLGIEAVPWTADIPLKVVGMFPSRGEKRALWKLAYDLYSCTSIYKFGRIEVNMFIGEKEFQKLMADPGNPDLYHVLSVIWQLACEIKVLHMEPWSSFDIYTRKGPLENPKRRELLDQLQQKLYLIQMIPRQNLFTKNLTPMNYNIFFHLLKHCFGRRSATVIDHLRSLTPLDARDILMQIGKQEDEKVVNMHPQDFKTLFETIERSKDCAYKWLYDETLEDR

TFB2M-Δ3 = target: T2, TFB2M-Δ3 (human, UniProt Q9H5Q4 20-393)
T2 sequence: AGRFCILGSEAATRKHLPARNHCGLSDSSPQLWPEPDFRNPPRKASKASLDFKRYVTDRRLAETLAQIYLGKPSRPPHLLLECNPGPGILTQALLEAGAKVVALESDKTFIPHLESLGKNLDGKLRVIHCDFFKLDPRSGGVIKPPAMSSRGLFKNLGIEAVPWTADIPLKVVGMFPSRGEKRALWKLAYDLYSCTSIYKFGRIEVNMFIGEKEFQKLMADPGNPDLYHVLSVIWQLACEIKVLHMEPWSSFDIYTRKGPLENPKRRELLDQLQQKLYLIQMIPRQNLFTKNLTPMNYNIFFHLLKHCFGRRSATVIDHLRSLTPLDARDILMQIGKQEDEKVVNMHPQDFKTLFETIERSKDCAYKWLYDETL

TFB2M-WT [2] = target: T1, TFB2M-WT; remark: listed apart in the source
TFB2M-Δ13 = target: T3, TFB2M-Δ13 (human, UniProt Q9H5Q4 20-383)
T3 sequence: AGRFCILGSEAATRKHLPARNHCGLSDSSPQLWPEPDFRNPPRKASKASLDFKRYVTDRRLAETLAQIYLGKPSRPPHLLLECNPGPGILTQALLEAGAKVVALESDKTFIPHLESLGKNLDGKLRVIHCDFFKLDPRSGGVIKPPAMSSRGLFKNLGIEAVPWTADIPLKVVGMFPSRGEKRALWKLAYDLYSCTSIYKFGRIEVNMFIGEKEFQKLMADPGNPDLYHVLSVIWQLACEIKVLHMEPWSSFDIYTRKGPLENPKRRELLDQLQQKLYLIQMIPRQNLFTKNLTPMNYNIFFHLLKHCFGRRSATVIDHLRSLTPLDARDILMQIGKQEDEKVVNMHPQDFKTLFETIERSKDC

TFB2M-WT [3] = target: T1, TFB2M-WT; remark: listed apart in the source
Mtf1-Δ20 [4] = target: T4, Mtf1-Δ20 (Saccharomyces cerevisiae, UniProt P14908 1-321)
T4 sequence: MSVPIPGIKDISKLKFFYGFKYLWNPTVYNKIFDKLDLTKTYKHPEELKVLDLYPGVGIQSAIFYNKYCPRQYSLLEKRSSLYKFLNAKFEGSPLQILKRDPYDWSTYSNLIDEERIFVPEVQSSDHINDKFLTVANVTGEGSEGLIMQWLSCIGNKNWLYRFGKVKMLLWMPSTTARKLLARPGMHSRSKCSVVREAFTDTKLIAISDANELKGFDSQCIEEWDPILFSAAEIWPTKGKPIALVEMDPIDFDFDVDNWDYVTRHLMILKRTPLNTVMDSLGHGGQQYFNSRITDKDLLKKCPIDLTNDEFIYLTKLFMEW

Mtf1-Δ20 [5] = target: T4, Mtf1-Δ20; remark: listed apart in the source
TFB2M-WT [6] = target: T1, TFB2M-WT; remark: listed apart in the source

B1: dT12 (ssDNA)
DNA: TTTTTTTTTTTT
binding result (TFB2M-WT [1]): binds

B2: LSP NT (ssDNA)
DNA: TACCGCCAAAAG
Kd (TFB2M-Δ3): 92 ± 3.3 nM | Kd (TFB2M-WT [2]): 169 ± 18 nM | Kd (TFB2M-Δ13): 46 ± 5.2 nM

B3: LSP duplex (dsDNA)
DNA 1: TACCGCCAAAAG
DNA 2: CTTTTGGCGGTA
binding signal (TFB2M-WT [3]): ~3 fold higher affinity than LSP NT

B4: 15S NT (ssDNA)
DNA: ATATAAGTAATA
Kd (Mtf1-Δ20 [4]): ~870 nM | Kd (Mtf1-Δ20 [5]): 51 ± 2.8 nM | Kd (TFB2M-WT [6]): 130 nM
